{"source": "paper doi:10.1101/096651", "about": "(bioRxiv, 2016)", "molecules": {"B1": {"name": "Fluorescence Recovery Protein (FRP) (natural protein)", "chain": "MLQTAEAPWSQAETQSAHALFRKAYQRELDGLLATVQAQASQITQIDDLWKLHDFLSAKRHEIDGKYDDRQSVIIFVFAQLLKEGLVQAEELTFLAADKQSKIKALARL"}}, "test_in_all_cases": "SEC", "key": {"[1]": {"molecular_target": "Apo-COCP (colorless apoprotein of COCP, OCP-CTD without carotenoid) (Synechocystis sp. PCC 6803) (UniProt P74102)"}, "[2]": {"molecular_target": "C-terminal OCP-related Carotenoid Protein (COCP), carotenoid-bound OCP-CTD (Synechocystis sp. PCC 6803) (UniProt P74102)"}, "SEC": {"molecular_target": "the molecule itself"}}}
{"molecule": "Apo-COCP (colorless apoprotein of COCP, OCP-CTD without carotenoid) (from UniProt P74102 1-317) (domain or fragment)", "values": [{"measurement": "stoichiometry N", "setting": "[1]", "result": 2}]}
{"molecule": "C-terminal OCP-related Carotenoid Protein (COCP), carotenoid-bound OCP-CTD (from UniProt P74102 1-317) (domain or fragment)", "values": [{"measurement": "stoichiometry N", "setting": "[2]", "result": 2}]}
{"molecule": "B1", "values": [{"measurement": "stoichiometry N", "setting": "SEC", "result": 2}]}
